Here are results for 2 substances from PMC6122992.

This assay addresses rhodamine-labeled cyclic β-hairpin peptide (human). Description: fluorescence polarisation. On the technique in general: Fluorescence polarisation rises when a labelled molecule tumbles more slowly, as on binding a larger partner.

A word on the Kd: it is the free concentration of one partner at which half of the binding sites on the other are occupied at equilibrium, for simple one-to-one binding. Low values mean tighter binding, high ones weaker binding.

“recombinant Ssa1 (from UniProt P10591 1-642) (natural protein)” showed a Kd of 3.5 µM.
Regarding “recombinant Ydj1 (from UniProt P25491 1-409) (natural protein)”, the Kd was found to be 46.8 µM.
